# Test results reported in paper PMC5841360.
# Target: mycGluA2 (recombinant) (UniProt P19491)
# Assay: co-IP with flag antibody, myc-GluA2 blot
# Settings: reference: wild type; sites Y421,Y466,Y482
substance,measurement,value
flag-cortactin (recombinant) (from UniProt Q60598) Y421F/Y466F/Y482F (TYM),binding against the reference,stronger
